The target in test [1] is T1, GST-fusion protein containing the C-terminal domain of Dsh (Drosophila, UniProt P51140 395-623).
T1 construct: domain: C-terminal; not shown: glutathione-S-transferase (GST) fusion partner
T1 sequence (looked up): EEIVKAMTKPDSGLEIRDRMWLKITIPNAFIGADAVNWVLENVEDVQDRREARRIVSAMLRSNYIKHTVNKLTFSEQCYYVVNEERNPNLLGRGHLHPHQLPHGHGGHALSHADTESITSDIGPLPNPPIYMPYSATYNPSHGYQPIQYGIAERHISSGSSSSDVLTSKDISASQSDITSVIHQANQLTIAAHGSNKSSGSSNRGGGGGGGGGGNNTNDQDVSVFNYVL
The test is described as follows: GST-fusion pull-down from Drosophila embryo lysates, in vitro kinase assay. The protocol:
(§1) Dsh is known to be progressively phosphorylated in Drosophila during the stages of embryonic development known to require Wnt. The stoichiometry of this phosphorylation is high and supports the importance of this reaction. To identify the kinase that phosphorylates Dsh, various regions of Dsh were tested for their ability to physically interact with this kinase. Equal amounts of lysates prepared from staged Drosophila embryos were blotted with anti-Dsh antibody. Only the GST-fusion protein containing the middle (DM), but not the N-terminal or C-terminal domain of Dsh, interacted with this kinase activity from Drosophila embryos. The Dsh- associated kinase activity, which was precipitated with GST-DM, increased as Dsh became progressively phosphoylated during development.
(§2) To perform the kinase assay, the embryos or cells were lysed in lysis buffer (50 mM HEPES [pH 7.6], 100 mM NaCl, 0.5% Nonidet P-40, 10 mM NaF, 5 mM NaPPi, 1.5 mM MgCl₂, 1 mM EGTA, 10% glycerol, and protease inhibitors). Cleared cell lysates were incubated with GST fusion proteins immobilized on glutathione agarose beads for two to four hours at 4° C. The glutathione beads were washed three times with lysis buffer and once with kinase buffer (50 mM Tris [pH7.6], 10 mM MgCl₂). […]

For test [2], the target named is T2, GST-fusion protein containing the N-terminal domain of Dsh (Drosophila, UniProt P51140 1-166).
T2 construct: domain: N-terminal; not shown: glutathione-S-transferase (GST) fusion partner
T2 sequence (looked up): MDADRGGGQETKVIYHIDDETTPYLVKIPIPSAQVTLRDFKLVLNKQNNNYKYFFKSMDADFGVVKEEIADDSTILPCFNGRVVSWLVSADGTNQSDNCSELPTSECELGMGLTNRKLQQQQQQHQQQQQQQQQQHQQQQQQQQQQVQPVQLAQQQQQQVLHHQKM
The description is as above. The protocol:
as §1, §2

The target of test [3] is T3, Dishevelled (Dsh) protein, Drosophila (Drosophila, UniProt P51140 1-623, progressively phosphorylated during development (sites not given)).
T3 construct: also called endogenous Dsh
T3 sequence (looked up): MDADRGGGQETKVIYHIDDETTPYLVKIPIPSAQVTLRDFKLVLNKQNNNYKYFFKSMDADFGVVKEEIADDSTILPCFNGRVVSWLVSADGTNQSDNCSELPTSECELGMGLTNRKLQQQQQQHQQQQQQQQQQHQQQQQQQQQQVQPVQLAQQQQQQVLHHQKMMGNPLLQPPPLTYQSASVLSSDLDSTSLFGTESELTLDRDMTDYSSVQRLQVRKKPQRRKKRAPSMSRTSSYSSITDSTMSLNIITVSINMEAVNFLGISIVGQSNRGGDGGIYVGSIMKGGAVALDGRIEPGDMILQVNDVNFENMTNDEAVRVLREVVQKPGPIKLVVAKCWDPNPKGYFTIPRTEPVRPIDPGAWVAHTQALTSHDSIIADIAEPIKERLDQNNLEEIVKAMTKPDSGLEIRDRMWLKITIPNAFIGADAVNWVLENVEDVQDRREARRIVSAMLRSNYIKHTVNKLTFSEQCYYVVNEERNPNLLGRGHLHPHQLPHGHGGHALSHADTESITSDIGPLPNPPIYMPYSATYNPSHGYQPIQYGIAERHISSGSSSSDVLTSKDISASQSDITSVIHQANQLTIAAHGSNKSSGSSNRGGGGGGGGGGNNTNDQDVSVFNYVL
Description: immunoprecipitation of Dsh from Drosophila embryos, in vitro kinase assay; the kinase was eluted with 700 mM NaCl. The protocol: To clone the Dsh-associated kinase, Dsh was immunoprecipitated from Drosophila embryos with preimmune and affinity-purified immune serum, and subjected to an in vitro kinase assay or blotted with anti-Dsh serum. Dsh immunoprecipitates were washed with 700 mM NaCl to elute the associated kinase. The eluted kinase was recovered after dilution by precipitation with GST-fusion proteins. The kinase was purified 60,000-fold from Drosophila embryos and several peptide sequences were then used to clone the cDNA of this kinase. After screening a Drosophila embryo cDNA library with oligo probes designed based on peptide sequences, the cDNA that encodes the kinase was cloned. The cDNA clones encode a protein kinase that is homologous to the C. elegans protein PAR-1 (85% identity in the kinase domain and 42% identity overall). […] Importantly, the kinase activity that was precipitated using GST-DM increased as Dsh became progressively phosphorylated during development. The kinase activity was also present in Dsh immunoprecipitates.
To perform the kinase assay, the embryos or cells were lysed in lysis buffer (50 mM HEPES [pH 7.6], 100 mM NaCl, 0.5% Nonidet P-40, 10 mM NaF, 5 mM NaPPi, 1.5 mM MgCl₂, 1 mM EGTA, 10% glycerol, and protease inhibitors). Cleared cell lysates were incubated with GST fusion proteins immobilized on glutathione agarose beads for two to four hours at 4° C. […]

B1: Drosophila PAR-1 (dPAR-1), the Dishevelled-associated kinase (enzyme)
chain: MSTAMRTTLQSVPEALPADSVSNGTASNVAAPAAPVSSATNAVPPLAAVSSTTATYATNSISTSSHSVKDQQQQQQQQQHDSANANIVSLPPTTTPVANTNTMMPIVTSSNSATSNSTAATPTPASGAAATGGVGSVSQGPATVSASAANTNHSHQHSHQHHHHVANNMTTDGARLSSNNSAVVASSAINHHHHHTPGSGVAPTVNKNVLSTHSAHPSAIKQRTSSAKGSPNMQMRSSAPMRWRATEEHIGKYKLIKTIGKGNFAKVKLAKHLPTGKEVAIKIIDKTQLNPGSLQKLFREVRIMKMLDHPNIVKLFQVIETEKTLYLIMEYASGGEVFDYLVLHGRMKEKEARVKFRQIVSAVQYCHQKRIIHRDLKAENLLLDSELNIKIADFGFSNEFTPGSKLDTFCGSPPYAAPELFQGKKYDGPEVDVWSLGVILYTLVSGSLPFDGSTLRELRERVLRGKYRIPFYMSTDCENLLRKFLVLNPAKRASLETIMGDKWMNMGFEEDELKPYIEPKADLADPKRIEALVAMGYNRSEIEASLSQVRYDDVFATYLLLGRKSTDPESDGSRSGSSLSLRNISGNDAGANAGSASVQSPTHRGVHRSISASSTKPSRRASSGAETLRVGPTNAAATVAAATGAVGAVNPSNNYNAAGSAADRASVGSNFKRQNTIDSATIKENTARLAAQNQRPASATQKMLTTADTTLNSPAKPRTATKYDPTNGNRTVSGTSGIIPRRSTTLYEKTSSTEKTNVIPAETKMASAVKSSRHFPRNVPSRSTFHSGQTRARNNTALEYSGTSGASGDSSHPGRMSFFSKLSSRFSKRPNQ
notes: Endogenous kinase from Drosophila embryo or Clone-8 cell lysates; In-gel bands of 110 kDa, 64 kDa and 130 kDa (minor) are said to be the kinase and its major fragment; also called Dsh-associated kinase; the kinase
Take B1: the binding result in test [1] is reported as “no binding”; in test [2], “no binding”; in test [3], “binds”.

For the origin of these results see patent publication US20020115167A1 (published 2002).
